Experimental data as given in patent publication US20240148916A1, “BIVALENT FIBROBLAST ACTIVATION PROTEIN LIGANDS FOR TARGETED DELIVERY APPLICATIONS” (priority 2021, published 2024).
*1 amine or outer side, *2 acyl side, *3 side chain or, on linkers, in order; H or OH if unused. Where a SMILES comes first, the peptide text is derived from it. The star is where a group is joined. Fluorescein(5-Mal) = O=C1OC2(c3ccc(O)cc3Oc3cc(O)ccc32)c2ccc(N3C(=O)CC(*)C3=O)cc21; X1 = N#C[C@@H]1CC(F)(F)CN1C(=O)CNC(=O)c1ccnc2c(N*)cccc12; Suc = O=C(CCC(=O)[*:2])[*:1]

How the values were obtained:
hFAP [1] = target: T1, hFAP (Homo sapiens, UniProt Q12884); assay: ELISA against immobilized hFAP; assay type: binding; settings: biotinylated hFAP immobilized on StreptaWell
T1 sequence (Q12884 1-760): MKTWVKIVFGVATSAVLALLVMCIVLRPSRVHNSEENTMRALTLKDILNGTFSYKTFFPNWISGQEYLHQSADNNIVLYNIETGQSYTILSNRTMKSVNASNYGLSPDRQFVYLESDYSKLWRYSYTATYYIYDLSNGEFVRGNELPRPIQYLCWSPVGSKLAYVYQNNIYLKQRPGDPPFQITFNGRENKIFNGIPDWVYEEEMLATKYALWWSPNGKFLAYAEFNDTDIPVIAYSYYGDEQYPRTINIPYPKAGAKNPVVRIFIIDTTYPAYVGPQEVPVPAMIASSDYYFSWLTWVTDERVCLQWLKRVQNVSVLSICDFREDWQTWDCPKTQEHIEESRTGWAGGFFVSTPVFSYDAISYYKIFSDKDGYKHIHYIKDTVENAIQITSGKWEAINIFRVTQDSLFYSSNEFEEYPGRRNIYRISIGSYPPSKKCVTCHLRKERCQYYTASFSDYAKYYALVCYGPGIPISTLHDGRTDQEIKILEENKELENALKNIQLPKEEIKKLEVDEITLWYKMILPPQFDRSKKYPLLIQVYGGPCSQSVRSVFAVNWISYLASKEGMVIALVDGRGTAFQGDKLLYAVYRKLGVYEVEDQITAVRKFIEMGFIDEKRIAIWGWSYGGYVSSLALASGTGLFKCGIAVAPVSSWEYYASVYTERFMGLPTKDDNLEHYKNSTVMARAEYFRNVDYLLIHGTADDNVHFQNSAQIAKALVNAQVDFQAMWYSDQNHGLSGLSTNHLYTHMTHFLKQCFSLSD
Experimental: Recombinant human FAP (1 μM, 5 mL) was biotinylated with Biotin-LC-NHS (100 eq.) by incubation at room temperature under gentle agitation in 50 mM HEPES, 100 mM NaCl buffer (pH=7.4). After 2 hours biotinylated hFAP was purified via PD-10 column and dialyzed overnight in HEPES buffer. The following day a StreptaWell™ (transparent 96-well) was incubated with biotinylated hFAP (100 nM, 100 μL/well) for 1 hour at room temperature and washed with PBS (3×, 200 μL/well). The protein was blocked by adding 4% Milk in PBS (200 μL/well, 30 min at RT) and then washed with PBS (3×, 200 μL/well). Immobilized hFAP was incubated for 30 minutes in the dark with serial dilutions of ESV6-Asp-Lys-Asp-Cys-Fluorescein and Bi-ESV6-Asp-Lys-Asp-Cys-Fluorescein (17), then washed with PBS (3×, 200 μL/well). A solution of rabbit αFITC antibody (1 μg/mL, Bio-Rad 4510-7804) in 2% Milk-PBS was added to each well (100 μL/well) and incubated for additional 30 minutes in the dark. The resulting complex was washed with PBS (3×, 200 μL/well) and incubated for additional 30 minutes of protein A-HRP (1 μg/mL in 2% Milk-PBS, 100 μL/well). Each well was washed with PBS 0.1% Tween (3×, 200 μL/well) and with PBS (3×, 200 μL/well). The substrate (TMB—3,3′,5,5′-Tetramethylbenzidine) was added (100 μL/well) and developed in the dark for 2 minutes. […] The absorbance was measured at 450 nm (ref 620-650 nm) with a TECAN spark

in vivo = assay: in vivo; parameters: species or system mice; settings: mouse; for tissue to tissue ratio at 1 h / tissue to tissue ratio at 4 h / tissue to tissue ratio at 17 h / tissue to tissue ratio at 24 h: female, athymic BALB/C nu/nu, iv, 250 nmol/kg, total radioactivity
Experimental: Upon thawing, HT-1080.hFAP positive cells and HT-1080.wt cells were kept in culture in DMEM medium supplemented with fetal bovine serum (10%, FBS) and Antibiotic-Antimycotic (1%, AA) at 37° C. and 5% CO2. For passaging, cells were detached using Trypsin-EDTA 0.05% when reaching 90% confluence and re-seeded at a dilution of 1:4. Cells were grown to 80% confluence and detached with Trypsin-EDTA 0.05%. Cells were re-suspended in cold HBSS medium to a final concentration of 5×10^7 cells/mL. Aliquots of 5×10^6 cells (100 μL of suspension) were injected subcutaneously in the flank of female athymic BALB/C nu/nu mice (6-8 weeks of age). HT-1080.hFAP tumour cells were xenografted in the right flank and HT-1080.wt tumour cells were xenografted in the left flank as described above and allowed to grow to an average volume of 1.2±0.2 mL. […] Mice were sacrificed 1 h, 4 h, 17 h and 24 h after the injection by CO2 asphyxiation and organs extracted, weighted and radioactivity measured with a Packard Cobra γ-counter. Values are expressed as % ID/g±SD (Figure C). Food and water were given ad libitum during that period.

hFAP [2] = target: T1, hFAP; assay: Gel filtration co-elution experiment on hFAP; assay type: binding; settings: PD-10 column, hFAP 2 μM
Experimental: The final solution was loaded on the column and flushed with running buffer. Fractions of the flow-through (200 μL) were collected in test tubes and the radioactivity measured with a Packard Cobra γ-counter. […] The final solution was loaded on the column and flushed with running buffer. Fractions of the flow-through (200 μL) were collected in test tubes and the radioactivity measured with a Packard Cobra γ-counter.

[3] = Tumour-to-organ ratios: HT-1080.hFAP
[4] = Tumour-to-organ ratios: Intestine

Structure (SMILES)	tissue to tissue ratio at 1 h (in vivo; Tumour-to-organ ratios: Blood)	tissue to tissue ratio at 4 h (in vivo; Tumour-to-organ ratios: Blood)	tissue to tissue ratio at 17 h (in vivo; Tumour-to-organ ratios: Blood)	tissue to tissue ratio at 24 h (in vivo; Tumour-to-organ ratios: Blood)	tissue to tissue ratio at 1 h (in vivo; [3])	tissue to tissue ratio at 4 h (in vivo; [3])	tissue to tissue ratio at 17 h (in vivo; [3])	tissue to tissue ratio at 24 h (in vivo; [3])	tissue to tissue ratio at 1 h (in vivo; Tumour-to-organ ratios: Heart)	tissue to tissue ratio at 4 h (in vivo; Tumour-to-organ ratios: Heart)	tissue to tissue ratio at 17 h (in vivo; Tumour-to-organ ratios: Heart)	tissue to tissue ratio at 24 h (in vivo; Tumour-to-organ ratios: Heart)	tissue to tissue ratio at 1 h (in vivo; [4])	tissue to tissue ratio at 4 h (in vivo; [4])	tissue to tissue ratio at 17 h (in vivo; [4])	tissue to tissue ratio at 24 h (in vivo; [4])	tissue to tissue ratio at 1 h (in vivo; Tumour-to-organ ratios: Kidney)	tissue to tissue ratio at 4 h (in vivo; Tumour-to-organ ratios: Kidney)	tissue to tissue ratio at 17 h (in vivo; Tumour-to-organ ratios: Kidney)	tissue to tissue ratio at 24 h (in vivo; Tumour-to-organ ratios: Kidney)	other results
N#C[C@@H]1CC(F)(F)CN1C(=O)CNC(=O)c1ccnc2c(NC(=O)CCC(=O)N[C@@H](CC(=O)O)C(=O)N[C@@H](CCCCN)C(=O)N[C@@H](CC(=O)O)C(=O)N[C@@H](CSC3CC(=O)N(c4ccc5c(c4)C(=O)OC54c5ccc(O)cc5Oc5cc(O)ccc54)C3=O)C(=O)O)cccc12 (stereo partly drawn) [ESV6-Asp-Lys-Asp-Cys-Fluorescein] ({X1-Suc}-DKDC(Fluorescein(5-Mal))-OH)																					Kd (hFAP [1]): 32.3 nM
N#C[C@@H]1CC(F)(F)CN1C(=O)CNC(=O)c1ccnc2c(NC(=O)CCC(=O)NCCNC(=O)CCC(C(=O)O)N3CCN(CC(=O)O)CCN(CC(=O)O)CCN(CC(=O)O)CC3)cccc12 (single isomer, unassigned) [^177Lu-ESV6-DOTAGA, metal not drawn]	43.1 ± 17.2	113 ± 49.8	236 ± 190	855 ± 368	34.9 ± 2.79	26.8 ± 6.42	32.6 ± 17.4	13.3 ± 5.95	135 ± 19.8	208 ± 113	354 ± 231	169 ± 172	41 ± 41.8	39.8 ± 11.4	163 ± 94.9	77 ± 58.6	9.16 ± 0.88	8.25 ± 1.45	5.72 ± 2.04	11.9 ± 16	tissue to tissue ratio at 1 h (in vivo; Tumour-to-organ ratios: Liver): 5.89 ± 0.82; tissue to tissue ratio at 4 h (in vivo; Tumour-to-organ ratios: Liver): 21.6 ± 2.99; tissue to tissue ratio at 17 h (in vivo; Tumour-to-organ ratios: Liver): 40.3 ± 13.3; tissue to tissue ratio at 24 h (in vivo; Tumour-to-organ ratios: Liver): 30.4 ± 6.7; tissue to tissue ratio at 1 h (in vivo; Tumour-to-organ ratios: Lung): 37.9 ± 2.59; tissue to tissue ratio at 4 h (in vivo; Tumour-to-organ ratios: Lung): 90.3 ± 29.3; tissue to tissue ratio at 17 h (in vivo; Tumour-to-organ ratios: Lung): 150 ± 88.5; tissue to tissue ratio at 24 h (in vivo; Tumour-to-organ ratios: Lung): 140 ± 83; tissue to tissue ratio at 1 h (in vivo; Tumour-to-organ ratios: Spleen): 109 ± 8.98; tissue to tissue ratio at 4 h (in vivo; Tumour-to-organ ratios: Spleen): 169 ± 67.8; tissue to tissue ratio at 17 h (in vivo; Tumour-to-organ ratios: Spleen): 200 ± 45.7; tissue to tissue ratio at 24 h (in vivo; Tumour-to-organ ratios: Spleen): 103 ± 66.7; tissue to tissue ratio at 1 h (in vivo; Tumour-to-organ ratios: Tail): 31.2 ± 8.39; tissue to tissue ratio at 4 h (in vivo; Tumour-to-organ ratios: Tail): 10.4 ± 7.6; tissue to tissue ratio at 17 h (in vivo; Tumour-to-organ ratios: Tail): 4.74 ± 5.11; tissue to tissue ratio at 24 h (in vivo; Tumour-to-organ ratios: Tail): 8.77 ± 2.3; Complex formation with hFAP (co-elution) (hFAP [2]): form a stable complex
N#C[C@@H]1CC(F)(F)CN1C(=O)CNC(=O)c1ccnc2c(NC(=O)CCC(=O)NCCCC[C@H](NC(=O)CCC(=O)Nc3cccc4c(C(=O)NCC(=O)N5CC(F)(F)C[C@H]5C#N)ccnc34)C(=O)NCCNC(=O)CCC(C(=O)O)N3CCN(CC(=O)O)CCN(CC(=O)O)CCN(CC(=O)O)CC3)cccc12 (stereo partly shown) [^177Lu-Bi-ESV6-DOTAGA, metal not drawn]	32.8 ± 8.97	62.8 ± 11.2	95.4 ± 19.1	178 ± 57.6	23 ± 8.09	25 ± 1.27	27.2 ± 11.3	29.7 ± 13.8	52.2 ± 10.8	125 ± 17.1	148 ± 12.9	201 ± 59.5	59.6 ± 6.48	82.4 ± 31.2	111 ± 32.1	104 ± 60.6	7.19 ± 2.29	8.61 ± 0.84	8.4 ± 1.31	9.9 ± 2.38	tissue to tissue ratio at 1 h (in vivo; Tumour-to-organ ratios: Liver): 18.8 ± 5.31; tissue to tissue ratio at 4 h (in vivo; Tumour-to-organ ratios: Liver): 29.9 ± 4.12; tissue to tissue ratio at 17 h (in vivo; Tumour-to-organ ratios: Liver): 27.9 ± 2.25; tissue to tissue ratio at 24 h (in vivo; Tumour-to-organ ratios: Liver): 30.6 ± 8; tissue to tissue ratio at 1 h (in vivo; Tumour-to-organ ratios: Lung): 19.5 ± 4.09; tissue to tissue ratio at 4 h (in vivo; Tumour-to-organ ratios: Lung): 65.5 ± 10.5; tissue to tissue ratio at 17 h (in vivo; Tumour-to-organ ratios: Lung): 124 ± 74.7; tissue to tissue ratio at 24 h (in vivo; Tumour-to-organ ratios: Lung): 98.7 ± 18.9; tissue to tissue ratio at 1 h (in vivo; Tumour-to-organ ratios: Spleen): 42.1 ± 17.7; tissue to tissue ratio at 4 h (in vivo; Tumour-to-organ ratios: Spleen): 73.8 ± 10.3; tissue to tissue ratio at 17 h (in vivo; Tumour-to-organ ratios: Spleen): 68.2 ± 11.7; tissue to tissue ratio at 24 h (in vivo; Tumour-to-organ ratios: Spleen): 93.6 ± 64.5; tissue to tissue ratio at 1 h (in vivo; Tumour-to-organ ratios: Tail): 10.4 ± 1.72; tissue to tissue ratio at 4 h (in vivo; Tumour-to-organ ratios: Tail): 9.68 ± 4.14; tissue to tissue ratio at 17 h (in vivo; Tumour-to-organ ratios: Tail): 14 ± 8.08; tissue to tissue ratio at 24 h (in vivo; Tumour-to-organ ratios: Tail): 15.5 ± 7.98; Kidney uptake (in vivo): transient and becomes negligible 24 hours after injection; Complex formation with hFAP (co-elution) (hFAP [2]): form a stable complex
